Measured values from US20020114805A1.

What was measured:
[1] = molecular target: human lymphotoxin (TNFβ) (human) (UniProt P01374); test: cell-based or functional assay
[2] = molecular target: human tumor necrosis factor-α (TNFα) (human) (UniProt P01375); test: cell-based or functional assay
Sequence of human tumor necrosis factor-α (TNFα) (human) (P01375 77-233): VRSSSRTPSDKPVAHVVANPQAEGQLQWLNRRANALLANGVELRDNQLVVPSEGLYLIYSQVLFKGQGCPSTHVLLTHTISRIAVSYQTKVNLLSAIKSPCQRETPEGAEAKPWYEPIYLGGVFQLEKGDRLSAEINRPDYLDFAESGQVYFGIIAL

Sequence of human lymphotoxin (TNFβ) (human) (P01374 35-205 limits assumed): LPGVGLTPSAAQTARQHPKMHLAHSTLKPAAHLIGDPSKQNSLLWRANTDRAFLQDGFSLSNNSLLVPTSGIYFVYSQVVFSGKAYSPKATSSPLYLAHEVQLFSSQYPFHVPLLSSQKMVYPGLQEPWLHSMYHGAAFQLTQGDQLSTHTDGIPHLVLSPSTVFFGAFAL

## p75P-sf2 TNF receptor/IgG1 fusion protein (from UniProt P20333 23-204) (Fc fusion)
[1]
  concentration to half-inhibit human TNFβ at 2 pM, WEHI 164 cytotoxicity assay: 31 pM

## p55-sf2 TNF receptor/IgG1 fusion protein (from UniProt P19438) (Fc fusion)
[1]
  amount needed for the same degree of inhibition of TNFβ cytotoxicity, against p75P-sf2 (fold against p75P-sf2): 3

## p75-sf2 TNF receptor/IgG1 fusion protein (from UniProt P20333 23-257) (Fc fusion)
[1]
  amount needed for the same degree of inhibition of TNFβ cytotoxicity, against p75P-sf2 (fold against p75P-sf2): 3

B1: chimeric mouse/human IgG1 anti-platelet mAb (7E3) (antibody, INN chains, looked up, V domains shown)
VH: EVQLQQSGTVLARPGASVKMSCEASGYTFTNYWMHWVKQRPGQGLEWIGAIYPGNSDTSYIQKFKGKAKLTAVTSTTSVYMELSSLTNEDSAVYYCTLYDGYYVFAYWGQGTLVTVSA
VL: EIVLTQSPVTLSVTPGDSVSLSCRASRDISNNLHWFQQTSHESPRLLIKYASQSMSGIPSRFSGSGSGTDFTLSINSVETEDFGMYFCQQTNSWPYTFGGGTKLEIK
modifications: chimeric IgG1
[2]
  IL-6 in supernatant of FS-4 fibroblasts (ng/ml), rhTNF 0.3 ng/ml with 4 µg/ml antibody (no antibody: 1.36): 1.6 ng/mL
  IL-6 in supernatant of FS-4 fibroblasts (ng/ml), rhTNF 1.5 ng/ml with 4 µg/ml antibody (no antibody: 2.00): 1.96 ng/mL
  IL-6 in supernatant of FS-4 fibroblasts (ng/ml), rhTNF 7.5 ng/ml with 4 µg/ml antibody (no antibody: 2.56): 2.16 ng/mL
